Assay results published in patent publication US20250002574A1.

Target: IL-11 (UniProt P20809)
Assay: ELISA on IL-11, positive control antibody ab130083

Sequence of IL-11 (P20809 22-199 limits assumed): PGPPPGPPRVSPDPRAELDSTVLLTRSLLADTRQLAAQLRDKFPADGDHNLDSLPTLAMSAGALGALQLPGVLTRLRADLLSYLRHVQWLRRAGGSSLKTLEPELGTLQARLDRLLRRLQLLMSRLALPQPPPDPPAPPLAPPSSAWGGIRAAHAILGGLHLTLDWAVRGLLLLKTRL

In the case of 6D9A1 (Abcam, ab130083) (antibody), the OD(450 nm) value is reported as 3.62 OD450.
